Target: T1, tau phosphorylated by TPK II (Homo sapiens, UniProt P10636)
T1 construct: Human recombinant tau 1-383 isoform; made in house; host or cells: tau and p20: E. coli; cdk5: baculovirus-infected insect cells
Assay: Gel-shift assay of TPK II tau phosphorylation
Assay type: biochemical
Settings: 3 μM tau, 50 nM TPK II, 60 μM Aβ peptide, 4 hours, FIG. 8
Experimental: Gel-shift assays were done by incubating 3 μM tau with 50 nM TPK II and/or 167 units/ml TPK I for the indicated time at 37° C. in a total volume of 20 μl containing 40 mM Tris, pH 7.5, 10 mM MgCl2, 1 mM DTT, and 1 mM ATP. Aβ peptides were added at 10× concentrations to the assay to achieve the final concentration indicated. Following incubation the samples were electrophoresed on 12% SDS-PAGE and stained with Coomassie Blue R-250.

T1 sequence (P10636 1-383 isoform P10636-6): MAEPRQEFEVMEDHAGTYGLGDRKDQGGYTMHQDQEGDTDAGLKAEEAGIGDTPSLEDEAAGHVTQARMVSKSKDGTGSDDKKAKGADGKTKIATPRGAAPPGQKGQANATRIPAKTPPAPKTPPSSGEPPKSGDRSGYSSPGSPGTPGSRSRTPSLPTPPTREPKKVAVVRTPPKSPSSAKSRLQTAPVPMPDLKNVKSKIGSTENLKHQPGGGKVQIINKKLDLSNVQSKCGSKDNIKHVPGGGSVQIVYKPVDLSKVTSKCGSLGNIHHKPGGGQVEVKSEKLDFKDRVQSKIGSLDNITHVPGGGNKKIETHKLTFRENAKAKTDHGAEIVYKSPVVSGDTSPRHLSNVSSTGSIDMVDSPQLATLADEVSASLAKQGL

Substance	effect on tau gel shift
Aβ 1-40: beta-amyloid peptide, residues 1-40, obtained from Bachem; control peptide	no effect
Aβ 25-35: beta-amyloid peptide fragment 25-35, obtained from Bachem; control peptide (GSNKGAIIGLM)	no effect
